# Data reported in patent publication US11091795B2, “Compositions and methods for diagnosing and treating arrhythmias” (Arizona Board of Regents on Behalf of the University of …, priority 2016, dated 2021).
# “Also recorded” adds a separate entry of the source.
# T1: IL-18 (Mus musculus, UniProt P70380)
# T1 construct: endogenous in cells; host or cells: sickle mice, in vivo (circulating and cardiac IL-18)
# T1 sequence (P70380 36-192): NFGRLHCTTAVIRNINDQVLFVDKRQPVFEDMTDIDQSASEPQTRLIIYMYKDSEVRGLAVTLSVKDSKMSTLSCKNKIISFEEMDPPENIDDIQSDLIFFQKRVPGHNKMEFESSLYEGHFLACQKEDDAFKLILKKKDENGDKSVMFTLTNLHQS
# B1: IL-18: exogenous IL-18 cytokine administered to mouse hearts, mice or cardiomyocytes (protein, UniProt P70380 36-192, looked up)
# Interleukin-18: T1 sequence (P70380 36-192)
# B2: IL-18bp: naturally occurring protein that binds to IL-18 and prevents it from activating its receptor (protein, UniProt Q9Z0M9 29-193, looked up)
# Interleukin-18-binding protein: TSAPQTTATVLTGSSKDPCSSWSPAVPTKQYPALDVIWPEKEVPLNGTLTLSCTACSRFPYFSILYWLGNGSFIEHLPGRLKEGHTSREHRNTSTWLHRALVLEELSPTLRSTNFSCLFVDPGQVAQYHIILAQLWDGLKTAPSPSQETLSSHSPVSRSAGPGVA
# Columns and labels:
# [1] = system: patients with sickle cell disease; conditions: cited from earlier work
# [2] = system: PBMCs isolated and cultured from patients with sickle cell disease; assay: Heme administration in vitro to PBMCs from sickle cell disease patients; type: cell-based, human; conditions: heme 100 uM, 16 h
# Text: IL-18, associated with prolonged QTc and mortality, is induced by heme in PBMCs.
# [3] = system: adults with moderate to severe sickle cell disease; conditions: cited from earlier work
# sickle mice = conditions: cited from earlier work
# sickle mice hearts = assay: Optical mapping of ex vivo perfused hearts with exogenous IL-18 in the perfusate; design: species or system mouse
# Text: (§1) Optical mapping: WT and sickle male mice (12-16 weeks) hearts underwent optical mapping. The optical apparatus has been previously described (Rutledge et al., 2014; supra). The values are presented as the mean±standard deviation. Student t test was used and a P value of <0.05 was considered statistically significant. Sample […] and activation maps with BCL pacing were made for both the control and sickle cell hearts.
# (§2) To establish cause and effect, acute effects of IL-18 on the myocardial electrical phenotype were evaluated further in sickle mice. […] Longer perfusion of IL-18 led to the development of multiple PVCs and short-lived VTs (n=4/4 hearts, FIG. 5E).
# WT mice hearts = assay: Optical mapping of ex vivo perfused hearts with exogenous IL-18 in the perfusate (WT); design: species or system mouse; conditions: IL-18 via the perfusate (20 ng/min)
# Text: as §1, §2
# [4] = system: transient outward K+ current (Ito) in sickle mouse cardiomyocytes; assay: Voltage clamp (patch clamp) of Ito in isolated cardiomyocytes; type: cell-based
# Protocol: IL-18 reduces Ito in isolated sickle cardiomyocytes. Voltage clamp experiments were performed on fresh cardiomyocytes isolated from a sickle mouse exposed to IL-18 (FIG. 10).
# Patch clamp protocol of Ito: Cardiomyocytes were isolated by standard enzymatic techniques and patch-clamp recordings of Ito were performed with an Axopatch-200B amplifier (Molecular Devices, Sunnyvale, Calif.) as described previously (El Gebeily et al., Pharmacol. 2010 Mar. 10; 629(1-3):96-103). Bath solution was Tyrode solution (mmol/L): 140 NaCl; 5.4 KCl; 1.8 CaCl2; 1 MgCl2; 0.33, Na2HPO4; 10 HEPES, 5.5 glucose (pH adjusted to 7.4 with NaOH). Pipette solution is (mmol/L): 110 K^+-aspartate, 20 KCl, 8 NaCl, 1 MgCl2, 1 CaCk2, 10 BAPTA, 4 K2ATP and 10 HEPES (pH adjusted to 7.2 KOH). Whole-cell voltage-clamp recordings were made using the ruptured patch-clamp technique with a patch-clamp amplifier, Axopatch 200 B (Axon Instruments, Foster City, USA). Pipettes resistances was ˜2 MΩ when filled with pipette solution. Series resistance in the whole-cell mode was compensated. Voltage-clamp currents were low-pass filtered at 1 kHz and digitized at 2 kHz. The total K+ current (Ipeak) was constructed from the current elicited by a series of 5 s test potentials at 10 mV increment from −110 mV to +50 mV from a holding potential of −80 mV at a frequency rate of 0.1 Hz. […] The data were recorded using pClamp 10.6 and analyzed with Clampfit (Axon Instruments, Foster City, USA). Current amplitudes were normalized to the cell capacitance and expressed as pA/pF. All experiments were carried out at room temperature (20-22° C.).
# [5] = system: cardiac Nox4, p38, nitrotyrosine in sickle mice; assay: Acute IL-18 administration in vivo, cardiac Nox4/p38/nitrotyrosine; design: species or system mouse; conditions: within 5 minutes of IL-18 administration to sickle mice (5 ug/kg)
# Text: Nitrotyrosine levels are considered a stable byproduct of the presence of peroxynitrite (ROS).
# IL-18 = biological target: T1, IL-18; assay: Chronic (sustained) inhibition of IL-18 with IL-18bp in sickle mice; type: in vivo; conditions: for myocardial fibrosis (Picrosirius Red staining): chronic/sustained (3 weeks) IL-18 inhibition; for diastolic function (change in E/E′, LV filling pressures, on echocardiography): chronic/sustained IL-18 inhibition
# Protocol: Based on the association of IL-18 with myocardial fibrosis and diastolic dysfunction, the functional role of IL-18 in the development of myocardial fibrosis and diastolic dysfunction was tested. […] The mechanisms of how IL-18 mediates sickle cardiomyopathy with prolonged repolarization, diastolic dysfunction, and myocardial fibrosis are unclear. Given the absence of significant IL-18 effect on WT mice and the vulnerability of sickle mice, microarray transcript profiling in murine LV tissue between the two mice was performed. A total of 1611 probes (812 annotated genes) were differentially expressed between sickle and WT mice (P≤0.05). […] Additionally, RT-PCR and western blot reveal sickle mice have reduced myocardial KCND2 and KCND3 gene expression levels (FIG. 6B) consistent with increased APD.
# It is contemplated that IL-18/IL-18R signaling implicates Nox4 function in sickle heart arrhythmic response. In an acute setting, it is contemplated that IL-18-mediated Nox4 activation downregulates KCND2/KCND3 expression and associated Ito activity which prolongs APD promoting VT; in a chronic setting, it is contemplated that IL-18 induces Nox4-mediated myocardial apoptosis and subsequent fibrosis resulting in pathologic electrophysiological remodeling enhancing VT vulnerability. Briefly, myocardial action potentials reflect the sequential activation and inactivation of inward depolarizing (Na^+, Ca^2+) and outward repolarizing (K^+) current-carrying ion channels. The K^+ channel function determines membrane potential and refractoriness of the myocardium. […] These observations are coupled with increased nitrotyrosine (ROS marker) levels and p38 MAPK activation (within 5 mins and sustained for 45 mins) in vivo. Reduced Ito is also associated with IL-18-induced prolonged APD, promoting early after depolarizations (EADs) and reentry formation in sickle cell hearts. Several reports have shown direct Nox4 interactions with IL-18R as well as Nox4-medaited p38 MAPK activation in cardiomyocytes resulting in reduced KCND2/KCND3 mRNA expression (and Ito current) (Li et al., 2012. J Mol Cell Cardiol 52:971-977; Zhou et al., 2008. J Mol Cell Cardiol 45:832-838; Zhou et al., 2006. Circ Res 98:1040-1047). Single cell voltage clamp and organ level optical mapping is used to evaluate the downstream effects of IL-18 and Nox4. […] Based on these acute and chronic data, a mutant mouse with cardiac-specific Nox4 genetic depletion in a sickle cell mouse background is generated to functionally validate the role of cardiac Nox4 in sickle cell cardiomyopathy and inducible VT.
# [6] = short-term administration, tumor necrosis factor-α-induced vaso-occlusion model
# [7] = IL-18 via the perfusate (20 ng/min), sickle mice hearts
# [8] = sickle mouse cardiomyocytes in the presence of IL-18
# [9] = sustained (3 weeks) IL-18 inhibition
molecule,measurement,setting,value
"Nc1ncn([C@H]2C[C@H](O)[C@@H](CO)O2)c(=O)n1 [decitabine, 5-Aza-2′-deoxycytidine]",sickle cell patients responding with an increase in HbF levels,[1]; including patients who had failed to respond to hydroxyurea,100%
same,dose-limiting toxicity,[1]; sickle cell patients,reversible neutropenia
same,increase in total hemoglobin levels,[1]; sickle cell patients,2 g/dL
same,reticulocyte counts,[1]; sickle cell patients,decreased
C=CC1=C(C)c2cc3[n-]c(cc4[n-]c(cc5nc(cc1n2)C(C)=C5C=C)c(C)c4CCC(=O)O)c(CCC(=O)O)c3C.[Fe+2] [heme],IL-18 protein expression,[2],induced IL-18 protein expression
same,IL-18 protein expression,[2]; listed as Heme,induces IL-18 protein expression
NC(=O)NO [hydroxyurea],"frequency of painful crises, episodes of acute chest syndrome, transfusion requirements and hospitalizations",[3]; large multicenter study,marked decrease
same,survival,[3]; patients,improved survival
same,hemolytic anemia at baseline,sickle mice; long-term administration in sickle mice,does not improve
same,animal survival,sickle mice; [6],prolonged animal survival
same,leukocyte recruitment to the microvasculature,sickle mice; [6],significantly altered
B1,action potential duration (APD),sickle mice hearts; [7],prolonged APD; also recorded: APD prolongation
same,"conduction velocity (CV), transverse and longitudinal",sickle mice hearts; [7],reduced trends in CV; also recorded: Trends in slowing
same,rise time of action potentials,sickle mice hearts; [7],Increased rise time
same,electrical effects after 20 minutes of IL-18 administration,sickle mice hearts; after 20 minutes of perfusion,"APD prolongation, atrioventricular block, and a slowed heart rate"
same,development of multiple PVCs and short-lived VTs,"sickle mice hearts; longer perfusion of IL-18, sickle hearts",4/4
same,"changes in APD, CV and rise time",WT mice hearts,no significant changes
same,reduction of Ito,"[4]; in 10 minutes, fresh cardiomyocytes isolated from a sickle mouse",47 % reduction
same,peak Ito,"[4]; sickle group, IL-18 25 ng/mL, at 50 mV",3.1±0.8 pA/pF
same,Ito (in words),[4]; [8],reduce Ito current; also recorded: further reduced
same,fast inactivating Ito,[4]; [8],mostly abolished
same,"cardiac Nox4, p38 activation and nitrotyrosine levels",[5],increases Nox4 levels; also recorded: acutely induces; also recorded: activated
B2,myocardial fibrosis (Picrosirius Red staining),IL-18,reduced
same,myocardial fibrosis (Picrosirius Red staining),IL-18; listed as IL-18 bp,reduced myocardial fibrosis
same,"diastolic function (change in E/E′, LV filling pressures, on echocardiography)",IL-18,improved cardiac function
same,"diastolic function (change in E/E′, LV filling pressures, on echocardiography)",IL-18; listed as IL-18 bp,improved
same,cardiac IL-18R (β subunit) and Nox4 expression,IL-18; [9],reduced cardiac Nox4 and IL-18R expression levels; also recorded: reduced cardiac IL-18R (β subunit) and Nox4 expression
same,myocardial apoptosis,IL-18; [9],reduced myocardial apoptosis
